Laboratory results taken from the DeepSol protein solubility set.

assay: soluble on expression in E. coli; label from the status in PepcDB or PDB records

Row | Sequence | soluble on expression in E. coli
1 | MSRNVGVLGQMSEINDHLYLSGAGVLKPDKIKQRKINMIVNATTEEPSTYMQGVDTMKIRIEDHPYARLNEHFDVVADKIRNVKERGGKTLVHCMAGVSRSASLVMIYLVKHEHMTLRQAYHYVKAARPIIRPNVGFWKQMVDYEKRLRGTASVKMVQTPECDMPIPDVYADDIRRMQINREISRHSLPSAQSSASKQRAFSASTYRPSVSSASSLATSSLRRAYSPSSLPASSLALTTSYSLFSPAPTRKPRQSLFSMYSTSPRHNFFSAF | not soluble
2 | MGSDKIHHHHHHMNKPCIISVAITGSLPRKKDNPAVPITVSEQVESTQAAFEAGATLVHLHVRNDDETPTSNPDRFALVLEGIRKHAPGMITQVSTGGRSGAGNERGAMLSLRPDMASLATGSVNFPTRVYDNPPELVDWLAAEMKTYGIKPEVEAFDLSMIFQAAAMQAAGAIVGPLHIQFVMGIKNAMPVDREVLEFYVQTLKRLSPDATWTGAGIGRHQLTMARWSLELGGHCRTGLEDNVRLDKNTLAPSNAALVRQVAELCEEYGRPVATAAQAREIMSLG | not soluble
3 | MSLERAKNSDLLRESLTTEELLLISNFAKKKGADSVFFKIIEKLDLKFRLSSFGLEVKNFLMKSKLTGDELTKLTPEILKNKTYENKKFRAYNIHIPSAKTFIGRANSYLDYISKIKDKLVGLGFQEFDGPLVETEFFNNDALFMPQFHPSRDIKDVYYISDPSMQESLPEPYFSNVKLAHETGYATGSRGWRYSFSEDLSKRLVLRTHGTVLSAKQLINAKNPSRYFGVIRCFRYDQVDATHGVDFYQTEGIVIEDGVSIKTLLGLLEIFAKELAGATEIKYVPAYFPFTEPSIEIHVKHPVLGWFELGGSGIFRPEVTKPLGIDLPVIAWGIGIDRMALMHLGLNDLRDLFTYDIGDVILRRGKIDAKVRNEGHHHHHH | not soluble
4 | MSHHNPLVSVVIPSKNRPDLVIATLVSVIDQTYDNIEIIVVDDGSDMPLAPLLKDRFSDRVLCLRNDQSLGGAVARNRGAQSAHGDYITFLDDDDLWLPKKLEMQVDAFSKHGVDIGVVYCGFDFLCKEEIVPRQNKFHNDYDLSIAVLSGCPFGSPTPLIRKHYFDMVGGFDRELPSCQDWDLWIRLSKVCGFYPVKESLALYRVHGDQISTNLRKKIDGRKMVLAKHYDEIKNYPRVLSAHYSRIGSLCVLADEHVEARDFFSKALASNMFDGGSFVHLVLQFLCRPLEKWLIERFSVNTIDGIKVIHLEHHHHHH | not soluble
5 | MNNYIDLAKTYGGFTSLDTNYLNHLLASLTDQQKLAFITPPPSVINAYFAEIYQKQSPQAATDYYFNLSKALGLFTDQPSFEEEKPFVRLNLSGKAYGFAYQNDQEVALVFSEKAEPKKPELFFELTQIFPQYMVYEDKGQLKMQAKQFEQGECEDITPDDTLLSKIYRLANGITMLKGFNVEELWALSQTFSGQKYYDFAQREFMIYITQ | not soluble
6 | METKEAIIHVIVATAEWGKDQLRYRRHRLAEFLAAQEETKEVIWVCPAPRAQGKEFQEVHSGIRQFAVKDLLQKKMFRFGRYTDVFYRHKLSPLLDELTPASANGERCCLWYTFPGFPLLSSLYSWDQVIYDCSDLWAAPISGRSNLLSEFRRKVIKSAELRIIQRADSITCSSDYLHKEVDKKLTAGREKVHTVENGVEYELFSANKQAPDRSILQGREGIVLGFIGGIKPKLDFKMIKEAALQKPDWTFLWVGPDATNGDVSFQELLRLPNVIWTGPADPKEVPHYMELIDIGIMPYKQSPYNQAVFPLKLFEFLAAGKPVVGTNLPSTSKMQKPYVYEYVEGDHPIDFIAACEKVLGQNGDETYKEMRRNIARTQDWNCLFRQIMKYTGIQKHAMAGDPLEHHHHHH | not soluble
7 | MGSDKIHHHHHHMAKDIIKLGDVATYINGYAFKPEDRGEEGLQIIRIQDLTGNSYDLGFYNGKYPKKIEINDGDVLISWSASLGVYVWNGGKALLNQHIFKVKFDKVDIDKSYFVYAVRYKLNDMGKKTHGATMKHIVKRDFDATEIPYPPLKKQIEIAINLDKVLMVIKERKRELKLLDELIKARFVEMFGDCTNMISLSDLCLIITDGTHQSPKFQHEGIPFILVSNLSKNTVTYDTDKFISAETYKELYKRTPIEIGDILLSTVGSYGHPAVVVEDRKFLFQRHIAYLKPKSDILNSYYMHGALLSPGCQRQIEEKVKGIAQKTLNLSEIRKIRIPVPSLDLQKQYADFVHQVNKSKVAVQKALDETQILFDSLMQKYFG | not soluble
8 | MKLYMSVDMEGISGLPDDTFVDSGKRNYERGRLIMTEEANYCIAEAFNSGCTEVLVNDSHSKMNNLMVEKLHPEADLISGDVKPFSMVEGLDDTFRGALFLGYHARASTPGVMSHSMIFGVRHFYINDRPVGELGLNAYVAGYYDVPVLMVAGDDRAAKEAEELIPNVTTAAVKQTISRSAVKCLSPAKRGRLLTEKTAFALQNKDKVKPLTPPDRPVLSIEFANYGQAEWANLMPGTEIKTGTTTVQFQAKDMLEAYQAMLVMTELAMRTSFC | soluble
9 | MKVAIIACQKMVEMGCPGKEACVSCFKAINEKSGAFERYKDVELVAFTTCGGCPGRRFPMRVKLLKTAAGAEAIHIANCTFLQPECPYINFDEICKKLMEELEIPIVFGTHTLVKKGEVVCTCGDNKE | not soluble
10 | GTAGKVIKCKAAVLWEQKQPFSIEEIEVAPPKTKEVRIKILATGICRTDDHVIKGTMVSKFPVIVGHEATGIVESIGEGVTTVKPGDKVIPLFLPQCRECNACRNPDGNLCIRSDITGRGVLADGTTRFTCKGKPVHHFMNTSTFTEYTVVDESSVAKIDDAAPPEKVCLIGCGFSTGYGAAVKTGKVKPGSTCVVFGLGGVGLSVIMGCKSAGASRIIGIDLNKDKFEKAMAVGATECISPKDSTKPISEVLSEMTGNNVGYTFEVIGHLETMIDALASCHMNYGTSVVVGVPPSAKMLTYDPMLLFTGRTWKGCVFGGLKSRDDVPKLVTEFLAKKFDLDQLITHVLPFKKISEGFELLNSGQSIRTVLTF | soluble
11 | MTTHLPSTSQNGEEISAEQFNRIFHERNVIVLDCRSNGDSVKRANRFFCSLRLPALLQRRLMGGSMRLSTVPDLKDLNNSPDQCPEVLLIPGDSEQDEQLSAALARNLKSNHYRHFVLGEPVKTLLSQFPTLRDAADENWNTTFQMNSMPGQASGQQASSGPLLNLNQLRLEGEDQGGKQRAEFPVKLTNFLYLGNAETAKNRDVLKKYSISHVINVTSNLPNTFEEDPNMRYLRISADDNASHNLTKFFPEAISFIDDARRNDSACLVHCLAGISRSVTICLAYLMKTEMCTLDSAYEWVQKRNASIAPNFHFMGQLTDYEKMLGLNSNRVGVSRQAVNFDVHFFCIFKLKKKEENSPESRILAETAV | not soluble
12 | SNAMIVGIGIDIIELNRIEKMLDGKLKFMERILTENERNVAKGLKGSRLTEFVAGRFAAKEAYSKAVGTGIGKEVSFLDIEVRNDDRGKPILITSTEHIVHLSISHSKEFAVAQVVLESSSS | soluble
13 | MAHHHHHHMLQRLQLFRSTLVNFLEWRNFSDVVHGCYVRVLLEMRSTEENRRESPDNYYIALVKGAQRGPVYSGFSADAVTTEWHIVIELPPCFRSTQNGNVVQLNSISNSPFRQAEYQNWVDMTNETRELSFPSLPQLQFRLGMLEEHKQQALTPEPRRHRNGEDAEAAALREWALEEKRKRITEEIMVTHVKLRRIDQLKALSLEDLQEVEREILDLITGVRISINERSKCMLCHNRICTEICYPCKHQVLCKDCAKSIRGRCPAPKCKTPVQYTFEAFTS | not soluble
14 | ERFAREPMAAGHRMWQMAGLKAQRAQTDVNNKKAAFDAAAKEKSDADVALSSALERRKQKENKEKDAKAKLDKESKRNKPGKATGKGKPVNNKWLNNAGKDLGSPVPDRIANKLRDKEFKSFDDFRKKFWEEVSKDPELSKQFSRNNNDRMKVGKAPKTRTQDVSGKRTSFELHHEKPISQNGGVYDMDNISVVTPKRHIDIHRGK | soluble
15 | VRLSRFDLAFDIFNRPEIVNLQHIKGGVTHKVFYGRGGELETKYWGSSGSNVQVRLYDKNKEIIAHKREEKLDLGVNPFWWRLEFQLRTKAIGEDMVQDIMNRLDNFGFYKLEHIRVDQRAFTIIFLSNPELLSLAFPNLKSDSIKKKKTRVRKLLREETNQFAEELKEVLIQNLPKLNTELQLLVGEFLTLEN | not soluble
16 | MKNVIACISSPRRVQSICDYAIWAVRRLGSELELLHVVEREQDAVPIADLSGGIWMGTQETLLKELAELDERRQQLAQEQGRQLLQAATERAREAGIQGLAGLARQGYLVDVLLELEDDARLFVMGQHDRPTKPSRLLPDQHLEAAVRALHRPVLVAG | not soluble
17 | MEDPLGRLEWIKFLSAFYDKEDKAENYFNQQVSKVMATENKVSSLKKPKVAFGMVDNGKVYIPAKNSYAAKMVDMAGGDYIFKDLNNKSGYITLEDFYSKSKDADVLIYSSSKEYTPSLKSMLSAAPILKTIKPVKNKKVWCFGKDYYQAIDKTDEIIEDLASIFHPESFKGYKIKHYSHLEHHHHHH | soluble
18 | MVADSQPGHIDQIKQTNAGAVYRLIDQLGPVSRIDLSRLAQLAPASITKIVREMLEAHLVQELEIKEAGSRGRPAVGLMVETEAWHYLSIRISRGEIFLALRDLSSKLVVEECLPLPLTEATPLLERIITHVDRFFTRHQQKLERLTSIAITLPGIIDTENGVVHRMPYYEDVKEMPLGDSLERHTGVPVYIQHDISAWTMAEALFGASRGARDVIQVVIDHNVGAGVITDGHLLHAGSSSLVEIGHTQVDPYGKRCYCGNHGCLETIASVDSVLELTQLRLNQSMSSMLHGQPLTVDSLCQAAMQGDLLAKDIISGVGAHVGRILAIMVNLFNPQKILIGSPLSKAADILFPAIADSIRQQALPAYSRNTVVESTQFTNQGTMAGAALVKDAMYNGSLLIRLLQG | not soluble
19 | SPINPYKDHMSVLKAYYAMNMEPNSDELLKISIAVGLPQEFVKEWFEQRKVYQYSNSR | soluble
20 | VTDLAGTTRLLRAQGVTAPAGFRAAGVAAGIKASGALDLALVFNEGPDYAAAGVFTRNQVKAAPVLWTQQVLTTGRLRAVILNSGGANACTGPAGFADTHATAEAVAAALSDWGTETGAIEVAVCSTGLIGDRLPMDKLLAGVAHVVHEMHGGLVGGDEAAHAIMTTDNVPKQVALHHHDNWTVGGMAKGAGMLAPSLA | soluble
21 | MAFFRLAALLWLGMLMSPVQAQSLSLQVLDAVVKDAVLADAEVQLGQASGRTDAQGRVTLEAADSPGSELLIRKLGYADLRAKCPCQGLSYAMSPVLKDPQSLRVVLSWSAPGEDLDAHLSYPHRLLYYATGTGPGARMNVDSTDSRGPETLTIEQPVPGDAYVYAVHDFTNGNNPESLRLGRSQAQVFVYKGPTLMRSYRVPQNRQGNLWVVFRLTANGQLQDIDRVLQGNEEVESRMSDLDPLLLANGKPIDEVLARDEGPVDAKSLNQKGEASYRKGDVGSAGIYYREAIELDPGFAQAYSNLALSNRKNSRPDEAVAADRQAIALASGPSAPTIRASAYYDMGRIYEDAGQLVTALEHYRKAREQKANPVYDKAIERLQNRLEHHHHHH | not soluble
22 | MGSLRLTERPHVRKARLWVKLSDGKEGWVRCDLCQRRCVIAPGKYGACGVRKNIGGELYTLVYGLLSASNIDPIEKKPLLHFYPGSTVLSISTVGCNFFCQFCQNFEISQSRLEKGLYGVYRTPEEVVRLALVYGADGITYTYNEPTIFFETVYDVAKEAKKHGLFNTMVTNGYMTPEAVDELGSLIDAATVDFKGGGDPEFYRKIMFVPDPEPIYEAILAMKDKGWWIEITNLVVPILGDKPEYVRRMARWIVENLGPEVPFHLLRFHPDYKLRHVPHTPVKTLEKLARIAMEEGLKHVYIGNVWGHPLEDTYCPKCGYKVVDREGFAIVEWRLTSDFRCPRCGYKLNFRGEYTPRNINYPMPVM | not soluble
